Patent EP3581587A1 (Shanghai Benemae Pharmaceutical Corporation, dated 2019)
Positions count from the first letter of the chain named.

B1: h-19F6 (antibody, human IgG4, V domains shown)
VH: EVQLVESGGGLVQPGRSLRLSCTASGFTFSKYAMSWVRQAPGKGLEWVSAINYDGSTTYYADSVKGRFTLSRDNSKNTLYLQMNSLRAEDTAVYYCARHPFNNFGIWFAYWGQGTLVTVS
VL: QFQLTQPSSVSASVGDRVTITCERSSGDIGDSYVSWYQQKPGQPPKNVIYADDQRPSGVPDRFSGSIDGSGNSASLTISSLQAEDAADYFCQSYDSNIDFNPVFGGGTKLEVK
B2: h-34F8 (antibody, human IgG4, V domains shown)
VH: QVQLQESGPGLVKPSETLSLTCTVSGFSLTTYHVHWVRQPPGKGLEWIGIMWRDGDTYYNSSLKSRVTISRDTSKNQVSLKLSSVTAADTAVYFCARGGTLTTPFTYWGQGTLVTVSS
VL: DVVLTQTPLSLPVTPGEPASISCRSSQSLESRDGNTYLEWYLQKPGQSPQVLLYGVSNRLSGVPDRFSGSGSGTDFTLKISRVEAEDVGVYYCFQATHGPFTFGQGTKLEIKR
B3: h-42A5 (antibody, human IgG4, V domains shown)
VH: QVTLKESGPVLVKPTETLTLTCTVSGFSLTSYHLHWIRQPPGKALEWMGLMWRDGDTSYNSRLKSRLTISRDTSKSQVVLTMTNMDPVDTATYYCARGMTLATPFLYWGQGTLVTVSS
VL: B2 VL with P12S, E17Q, R32S, V51L, L53I, L60F, V88L, H98R, G99D

biological target: human activated coagulation factor XI (FXIa) (human, UniProt P03951 19-625); experiment: cell-based or functional assay

Binder | apparent Ki, inhibition of FXIa cleavage of chromogenic substrate S-2366 [nM]
B1 | 0.67
B2 | 2.08
B3 | 1.43
